Assay results taken from patent publication US11141462B2, “Method for the treatment or prevention of osteoarthritis” (Chondropeptix B.V., priority 2016, dated 2021).

How the values were obtained:
[1] = system: OA articular chondrocytes; assay: OA chondrocyte phenotype gene expression screening of BMP-7 peptides (RT-qPCR); type: cell-based, human; conditions: independent of the tested concentration (1000, 100, 10 and 1 nM were tested)
Experimental: (§1) FIG. 2: The action of 20-mer peptides (10 nM) of SEQ ID NO: 2-17 (peptides with 1 or 2 amino acids intervals (18-19 amino acid overlap)) and a random peptide with a sequence according to SEQ ID NO: 49 on the expression of ADAMTS5 was determined on a validated pool of passage 2 OA human articular chondrocytes (n=18) and compared to full-length recombinant BMP-7 (1 nM). Samples were harvested after 24 hours and analyzed for indicated genes by RT-qPCR (normalized for 28S rRNA expression and relative to control conditions (no peptide exposure)). In the graphs, numbers on the x-axis represent individual peptides according to their SEQ ID NO's, error bars represent mean±SEM, statistical differences were calculated (one-way ANOVA with bonferroni correction) to control condition. *=p<0.05 lower than control condition for ADAMTS5. Random peptide is a peptide according to SEQ ID NO: 49.
as §1, with “3:” for “2:”, “ALP” for “ADAMTS5”, “ALP.” for “ADAMTS5.”
as §1, with “4:” for “2:”, “BAPX1/NKX3.2” for “ADAMTS5”, “BAPX1/NKX3.2.” for “ADAMTS5.”
as §1, with “5:” for “2:”, “COL10A1” for “ADAMTS5”, “COL10A1.” for “ADAMTS5.”
FIG. 6: The action of 20-mer peptides (10 nM) of SEQ ID NO: 2-17 (peptides with 1 or 2 amino acids intervals (18-19 amino acid overlap)) and a random peptide with a sequence according to SEQ ID NO: 49 on the expression of IL-6 was determined on a validated pool of passage 2 OA human articular chondrocytes (n=18) and compared to full-length recombinant BMP-7 (1 nM). […]

[2] = system: Meniscus tissue samples from OA patients; assay: PGE2 ELISA, meniscus tissue samples; type: cell-based, human; conditions: 24 h
Experimental: Meniscus tissue samples from OA patients (n=6) were treated with BMP-7 (1 nM) with peptide peptide […] (SEQ ID NO: 13) at 10 nM or a scrambled irrelevant control peptide (10 nM) for 24 h. PGE2 levels were determined via an ELISA.

[3] = system: Hoffa's fat pad tissue samples from OA patients; assay: PGE2 ELISA, Hoffa's fat pad tissue samples; type: cell-based, human; conditions: 24 h
Experimental: Hoffa's fat pad tissue samples from OA patients (n=6) were treated with BMP-7 (1 nM) with peptide […] (SEQ ID NO: 13) at 10 nM or a scrambled irrelevant control peptide (10 nM) for 24 h. PGE2 levels were determined via an ELISA.

Cartilage explants = assay: Safranin-O staining of glycosaminoglycans in cartilage explants; type: cell-based, human; conditions: 14 days, explants from 2 patients, compared to control
Experimental: Cartilage explants obtained from 2 patients were cultured for 14 days in the presence of BMP-7 (1 nM) or BMP-7 mimicking peptide […] (SEQ ID NO: 13) at 10 nM. Glycosaminoglycans (GAGs), an important component of the extracellular matrix (ECM), were stained with Safranin-O (in red) and other tissues are counterstained with Fast green (in green/blue).

[4] = system: Cartilage explants from OA patient's knee cartilage; assay: PGE2 ELISA, cartilage explants; type: cell-based, human; conditions: 14 days
Experimental: Cartilage explants of 3 mm^2 were taken from OA patient's knee cartilage (n=6) and treated with BMP-7 (1 nM), with peptide […] (SEQ ID NO: 13) at 10 nM or a scrambled irrelevant control peptide (10 nM) for 14 days. Prostaglandin E2 (PGE2) levels, a pro-hypertrophic factor, were determined via an ELISA.

[5] = system: Synovial tissue samples from OA patients; assay: PGE2 ELISA, synovial tissue samples; type: cell-based, human; conditions: 24 h
Experimental: Synovial tissue samples from OA patients (n=6) were treated with BMP-7 (1 nM), with peptide […] (SEQ ID NO: 13) at 10 nM or a scrambled irrelevant control peptide (10 nM) for 24 h. PGE2 levels were determined via an ELISA.

OA chondrocytes = conditions: cited from earlier work
[6] = system: cartilage explants from OA patient's knee articular cartilage; assay: Treatment of cartilage explants, hypertrophic gene expression by qRT-PCR; type: cell-based, human; conditions: 1 nM, 24 h
Experimental: 4 mm 2 cartilage explants were taken from non-lesion areas of OA patient's knee articular cartilage (n=5) and randomly assigned to different experimental treatment conditions (4 explants per treatment group). After a 24 h equilibration period the explants were treated with BMP-7 (1 nM) or the 12-mer peptide according to SEQ ID NO: 43 (10 nM) for 24 h. Hypertrophic gene expression was determined via qRT-PCR and normalized for 28S rRNA levels. After treatment with BMP-7 or the 12 mer we observed a downregulation of pro-hypertrophic genes, such as Col10a1 (FIG. 9A) and MMP13 (FIG. 9B).

OA in rats = conditions: intra-articular administration; cited from earlier work
[7] = system: Osteoarthritis chondrocytes; assay: BMP-7 rescue of OA-associated chondrocyte phenotype (FIG. 1); type: cell-based
Experimental: FIG. 1: BMP-7 rescues OA-associated chondrocyte phenotype. Osteoarthritis chondrocytes display a typical phenotype that is characterized by decreased expression of SOX9, COL2A1 and BAPX1/NKX3.2 and an increased expression of COX-2 and IL-6 mRNAs (see left panel).
Functional ALP enzyme activity in cell lysates and PGE2 secretion in the culture medium was also normalized upon BMP-7 treatment of OA chondrocytes (right panel).
Expression of indicated mRNAs was determined by RT-qPCR, relatively to control conditions (normalized for 28S rRNA expression). In graphs, error bars represent mean±SEM, statistical differences were calculated as compared to healthy condition. *=p<0.05.

[8] = system: Isolated chondrocytes from OA patients; assay: Treatment of isolated chondrocytes from OA patients, gene expression by qRT-PCR; type: cell-based, human; conditions: 1 nM, 24 h; qRT-PCR normalized for 28S rRNA; n=6
Experimental: Isolated chondrocytes from OA patients (n=6) were treated with BMP-7 (1 nM) or the 12-mer peptide according to SEQ ID NO: 43 (1 nM) for 24 h. Pro-chondrogenic (FIG. 8A) and hypertrophic (FIGS. 8B, 8C and 8D) gene expression was determined via qRT-PCR and normalized for 28S rRNA levels.

OA patients = conditions: phase-1 clinical trial in OA patients; intra-articular injection; cited from earlier work
[9] = system: IL-1β-exposed chondrocytes; conditions: cited from earlier work
[10] = BMP-7 1 nM, OA chondrocytes, RT-qPCR normalized for 28S rRNA
[11] = BMP-7 treatment of OA chondrocytes

## SVLYFDDSSNVILKKYRNMV (listed as Homo sapiens) [SEQ ID NO: 13]
[1]
  suppression of the OA chondrocyte phenotype: efficiently suppressed the OA chondrocyte phenotype
[2]; 10 nM
  PGE2 levels: reduce PGE2 levels
[3]; 10 nM
  PGE2 levels: reduce PGE2 levels
Cartilage explants; 10 nM
  Safranin-O intensity (glycosaminoglycans): increased Safranin-O intensity
[4]; 10 nM
  PGE2 levels: reduce PGE2 levels
[5]; 10 nM
  PGE2 levels: reduce PGE2 levels

B1: BMP-7: full-length recombinant human bone morphogenetic protein-7; mature polypeptide of 139 amino acids (protein, listed as Homo sapiens)
chain: STGSKQRSQNRSKTPKNQEALRMANVAENSSSDQRQACKKHELYVSFRDLGWQDWIIAPEGYAAYYCEGECAFPLNSYMNATNHAIVQTLVHFINPETVPKPCCAPTQLNAISVLYFDDSSNVILKKYRNMVVRACGCH
[2]; 1 nM
  PGE2 levels: reduce PGE2 levels
[3]; 1 nM
  PGE2 levels: reduce PGE2 levels
OA chondrocytes
  proteoglycan synthesis: stimulates
[6]
  Col10a1 gene expression: downregulation
  MMP13 gene expression: downregulation
OA in rats
  OA development and progression: protects against OA development and delays progression of OA
[7]
  BMP-7 concentration at which OA chondrocyte-phenotype suppressive action is most pronounced: around 1 nM
[7]; [10]
  BAPX1/NKX3.2 mRNA expression: normalizing expression
  COL2A1 mRNA expression: normalizing expression
  COX-2 mRNA expression: normalizing expression
  IL-6 mRNA expression: normalizing expression
  SOX9 mRNA expression: normalizing expression
[7]; BMP-7 concentrations higher than 1 nM (eg 10 nM or 100 nM)
  effects on the chondrocyte phenotype: opposite and negative effects
[7]; [11]
  Functional ALP enzyme activity in cell lysates: normalized
  PGE2 secretion in the culture medium: normalized
Cartilage explants; 1 nM
  Safranin-O intensity (glycosaminoglycans): increased Safranin-O intensity
[8]
  COL10A1 (pro-hypertrophic) gene expression: downregulation
  COX-2 (pro-hypertrophic) gene expression: downregulation
  Col2a1 (pro-chondrogenic) gene expression: upregulation
  RUNX2 (pro-hypertrophic) gene expression: downregulation
OA patients
  adverse events: no serious adverse events
[9]
  MMP13 expression: decreases
[4]; 1 nM
  PGE2 levels: reduce PGE2 levels
[5]; 1 nM
  PGE2 levels: reduce PGE2 levels
